According to article PMC7082061 (PLoS Pathogens, 2020):

Target: full-length wild type MOKV G (MOKV G WT) (Mokola virus) (UniProt P0C572)
Assay: negative staining electron microscopy

Sequence of full-length wild type MOKV G (MOKV G WT) (P0C572 20-522): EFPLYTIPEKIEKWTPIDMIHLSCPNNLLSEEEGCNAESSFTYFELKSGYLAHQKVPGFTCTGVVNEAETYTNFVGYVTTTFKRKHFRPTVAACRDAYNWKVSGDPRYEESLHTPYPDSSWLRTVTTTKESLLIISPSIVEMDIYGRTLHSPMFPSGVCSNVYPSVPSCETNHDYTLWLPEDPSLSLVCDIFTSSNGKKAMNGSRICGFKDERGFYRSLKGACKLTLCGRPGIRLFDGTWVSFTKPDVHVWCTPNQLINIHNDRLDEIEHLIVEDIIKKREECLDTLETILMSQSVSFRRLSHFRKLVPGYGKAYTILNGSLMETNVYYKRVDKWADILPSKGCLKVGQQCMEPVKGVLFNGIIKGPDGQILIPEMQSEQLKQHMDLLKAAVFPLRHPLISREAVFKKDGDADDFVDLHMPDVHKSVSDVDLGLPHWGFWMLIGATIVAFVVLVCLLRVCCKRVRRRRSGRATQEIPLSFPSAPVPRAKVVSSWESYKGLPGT

full-length wild type MOKV G (MOKV G WT) (from UniProt P0C572 20-522) (natural protein)
stoichiometry N: 3
